The data set relates to T1, purified recombinant His-tagged C12ORF48 protein.
T1 sequence: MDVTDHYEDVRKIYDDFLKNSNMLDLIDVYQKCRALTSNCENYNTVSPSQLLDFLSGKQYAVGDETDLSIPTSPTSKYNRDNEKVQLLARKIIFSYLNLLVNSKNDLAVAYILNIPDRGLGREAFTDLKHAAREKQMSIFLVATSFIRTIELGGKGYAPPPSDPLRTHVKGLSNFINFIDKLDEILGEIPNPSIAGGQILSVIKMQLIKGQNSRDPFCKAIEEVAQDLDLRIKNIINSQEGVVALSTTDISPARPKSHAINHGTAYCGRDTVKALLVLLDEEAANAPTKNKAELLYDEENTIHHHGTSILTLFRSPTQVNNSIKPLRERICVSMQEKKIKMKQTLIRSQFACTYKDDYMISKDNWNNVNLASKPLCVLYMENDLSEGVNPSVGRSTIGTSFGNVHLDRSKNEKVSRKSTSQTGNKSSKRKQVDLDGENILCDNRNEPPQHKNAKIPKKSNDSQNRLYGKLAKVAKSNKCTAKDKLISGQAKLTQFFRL

On to recombinant human PARP1 (Alexis), for which the “PARP1 automodification, incorporation of [32P] NAD+, SDS-PAGE autoradiography” value is given as “PARP1 automodification was strongly enhanced in the presence of C12ORF48 protein compared with in the absence of C12ORF48 protein”.

The record behind these values is patent US20110263679.
